Publication PMC11046786

Molecular target: Psilocybe mexicana IasA (indole-3-acetaldehyde synthase), C-terminally hexahistidine-tagged (Psilocybe mexicana)
Test: SEC; Superdex 200 increase 10/300 GL, native protein, 50 mM sodium phosphate, 150 mM NaCl, pH 7.2, 0.5 mL/min

## Psilocybe mexicana IasA (indole-3-acetaldehyde synthase), C-terminally hexahistidine-tagged (enzyme)
  stoichiometry N: 2
